The results in this text go back to article PMC9530208, “MutS functions as a clamp loader by positioning MutL on the DNA during mismatch repair”.

In one data set the target is MutL (Escherichia coli) (UniProt P23367). Briefly: smTIRF. The following applies: ATP, no MutS, 10 mM NaCl, 10 nM MutL; single mismatch; smTIRF: 20 mM Tris-HCl pH 7.5, 0.1 mM DTT, 0.2 mg/mL acetylated BSA, 0.0025% P-20, 5 mM MgCl2, 100 mM NaCl (Buffer C), 1 mM ATP or AMP-PNP; NaCl varied …; scale: fraction of DNA molecules with MutL sliding clamp.
The target in data set [1] is MutL(R-E) R162E;R266E;R316E (Escherichia coli) (UniProt P23367). Briefly: smTIRF. The note with it: 30 mM NaCl, 2 nM protein; single mismatch; smTIRF: 20 mM Tris-HCl pH 7.5, 0.1 mM DTT, 0.2 mg/mL acetylated BSA, 0.0025% P-20, 5 mM MgCl2, 100 mM NaCl (Buffer C), 1 mM ATP or AMP-PNP; NaCl varied …; scale: fold fewer binding events than wild-type MutL.
Data set [2] deals with MutL(R266E) (Escherichia coli). Briefly: smTIRF. The following applies: 30 mM NaCl, 2 nM protein; single mismatch; smTIRF: 20 mM Tris-HCl pH 7.5, 0.1 mM DTT, 0.2 mg/mL acetylated BSA, 0.0025% P-20, 5 mM MgCl2, 100 mM NaCl (Buffer C), 1 mM ATP or AMP-PNP; NaCl varied …; scale: fold fewer binding events than wild-type MutL.
Data set [3] concerns the target MutS;MutL (Escherichia coli;Escherichia coli) (UniProt P23367). Briefly: smTIRF. The following applies: ATP, 10 nM MutL, single mismatch, smTIRF: 20 mM Tris-HCl pH 7.5, 0.1 mM DTT, 0.2 mg/mL acetylated BSA, 0.0025% P-20, 5 mM MgCl2, 100 mM NaCl (Buffer C), 1 mM ATP or AMP-PNP, NaCl varied …, scale: fraction of DNA molecules with MutL sliding clamp.
Another data set concerns the target MutS-bio;MutL (Escherichia coli;Escherichia coli, UniProt P23909;P23367 1-853;1-615, |). In words: smTIRF; ATP; immobilized MutS-bio, MutL co-localization lifetime 29 +/- 2 s; smTIRF: 20 mM Tris-HCl pH 7.5, 0.1 mM DTT, 0.2 mg/mL acetylated BSA, 0.0025% P-20, 5 mM MgCl2, 100 mM NaCl (Buffer C), 1 mM ATP or AMP-PNP; NaCl varied 10-100 mM; Mg2+ omitted for MutL-only binding per reviewer comment; temperature not given. The note with it: protein: recombinant;recombinant; chain copies: 2;2; label: 5'-biotin on both strands; blunt, single G/T mismatch at position 32 of strand 1.

For 18.4-kb mismatched DNA, the binding signal with MutL (Escherichia coli) was found to be 0.25; in data set [1], 30; in data set [2], 3; in data set [3] (loaded at 10 mM NaCl), 0.567; in data set [3] (loaded at 100 mM NaCl), 0.073.

B1: 59-bp mismatched DNA (dsDNA)
DNA 1: CGCGGGTTTTCGCTATTTATGAAAATTTTCCGGTTTAAGGCGTTTCCGTTCTTCTTCGT
DNA 2: ACGAAGAAGAACGGAAACGCCTTAAACTGGAAAATTTTCATAAATAGCGAAAACCCGCG
As to B1, in the data set with MutS-bio;MutL, the binding result was “binds”.
